The supplement of paper PMC9112550, “Optimization of the antimicrobial peptide Bac7 by deep mutational scanning” (BMC Biology, 2022)

Tested on: Escherichia coli TOP10
Experiment: shrunken log2 fold change of peptide-encoding DNA abundance (4.5 h post-induction vs induction); higher = less antimicrobial activity (less host growth inhibition)
Details: time post-induction: 4.5 h; library: site-saturation at positions 5, 18, 19, 20
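Also: peptides expressed intracellularly from a pBAD plasmid library in pooled LB shake-flask culture, induced with 0.3% L-arabinose, DNA abundance read by NGS, three biological replicates, DESeq2 with apeglm shrinkage.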

Sequence	shrunken log2 fold change
RRIRERPPRLPRPRPRPLYEPRP	-1.24
RRIRFRPPRLPRPRPRPYGEPRP	-0.0721
RRIRHRPPRLPRPRPRPPRAPRP	0.667
RRIRTRPPRLPRPRPRPVVIPRP	1.29
RRIRNRPPRLPRPRPRPSALPRP	-0.213
RRIRWRPPRLPRPRPRPKQLPRP	-0.0021
RRIRQRPPRLPRPRPRPRWAPRP	0.144
RRIRYRPPRLPRPRPRPILTPRP	-1.08
RRIRDRPPRLPRPRPRPIRWPRP	0.13
RRIRYRPPRLPRPRPRPMRCPRP	-0.000627
RRIRARPPRLPRPRPRPLQDPRP	0.25
RRIRWRPPRLPRPRPRPSHFPRP	-0.151
RRIRDRPPRLPRPRPRPAGTPRP	0.207
RRIRARPPRLPRPRPRPMWFPRP	0.0716
RRIRTRPPRLPRPRPRPANVPRP	-0.0276
RRIRNRPPRLPRPRPRPNREPRP	0.00564
RRIRIRPPRLPRPRPRPVIQPRP	-1.44
RRIRPRPPRLPRPRPRPEEFPRP	-0.0108
RRIRKRPPRLPRPRPRPPLDPRP	0.809
RRIRRRPPRLPRPRPRPLPTPRP	0.729

Sequence	shrunken log2 fold change
RRIRERPPRLPRPRPRPHYDPRP	-0.963
RRIRRRPPRLPRPRPRPGMDPRP	0.0814
RRIRHRPPRLPRPRPRPDSSPRP	0.00209
RRIRLRPPRLPRPRPRPQRGPRP	0.111
RRIRLRPPRLPRPRPRPCSFPRP	-0.051
RRIRNRPPRLPRPRPRPADSPRP	-0.0169
RRIRQRPPRLPRPRPRPVSRPRP	-0.00586
RRIRNRPPRLPRPRPRPTLNPRP	-0.105
RRIRWRPPRLPRPRPRPVEEPRP	0.0996
RRIRSRPPRLPRPRPRPTRSPRP	0.784
RRIRLRPPRLPRPRPRPVCEPRP	0.39
RRIRTRPPRLPRPRPRPLGDPRP	-0.109
RRIRKRPPRLPRPRPRPGLRPRP	0.708
RRIRFRPPRLPRPRPRPRAFPRP	0.0447
RRIRRRPPRLPRPRPRPVWRPRP	0.436
RRIRPRPPRLPRPRPRPKDMPRP	-0.0163
RRIRWRPPRLPRPRPRPQYLPRP	-0.12
RRIRERPPRLPRPRPRPYCNPRP	-0.143
RRIRPRPPRLPRPRPRPSEWPRP	0.0522
RRIRERPPRLPRPRPRPDSEPRP	-0.0854

Sequence	shrunken log2 fold change
RRIRYRPPRLPRPRPRPVDTPRP	-0.204
RRIRHRPPRLPRPRPRPSKWPRP	-0.452
RRIRDRPPRLPRPRPRPFTFPRP	-0.167
RRIRKRPPRLPRPRPRPDVHPRP	-0.00151
RRIRIRPPRLPRPRPRPLNMPRP	-0.528
RRIRARPPRLPRPRPRPNFTPRP	0.134
RRIRARPPRLPRPRPRPFYEPRP	-0.125
RRIRTRPPRLPRPRPRPYSWPRP	-0.118
RRIRKRPPRLPRPRPRPQHMPRP	0.0396
RRIRDRPPRLPRPRPRPTEFPRP	-0.0306
RRIRPRPPRLPRPRPRPAFMPRP	-0.0434
RRIRTRPPRLPRPRPRPVRLPRP	-0.0555
RRIRCRPPRLPRPRPRPVWHPRP	0.127
RRIRYRPPRLPRPRPRPAAFPRP	-0.757
RRIRARPPRLPRPRPRPCQPPRP	-0.0379
RRIRCRPPRLPRPRPRPAPWPRP	0.438
RRIRHRPPRLPRPRPRPRSCPRP	-0.0982
RRIRWRPPRLPRPRPRPMVQPRP	0.121
RRIRSRPPRLPRPRPRPCQDPRP	-0.0622
RRIRRRPPRLPRPRPRPVYQPRP	-0.384
